In article doi:10.1101/2024.09.22.614354 (bioRxiv, 2024):

How the values were obtained:
Assay in all cases: fluorescence polarisation
[1] = target: T1, Rb^P R656Q (human, UniProt P06400 380-788, R656Q)
T1 sequence: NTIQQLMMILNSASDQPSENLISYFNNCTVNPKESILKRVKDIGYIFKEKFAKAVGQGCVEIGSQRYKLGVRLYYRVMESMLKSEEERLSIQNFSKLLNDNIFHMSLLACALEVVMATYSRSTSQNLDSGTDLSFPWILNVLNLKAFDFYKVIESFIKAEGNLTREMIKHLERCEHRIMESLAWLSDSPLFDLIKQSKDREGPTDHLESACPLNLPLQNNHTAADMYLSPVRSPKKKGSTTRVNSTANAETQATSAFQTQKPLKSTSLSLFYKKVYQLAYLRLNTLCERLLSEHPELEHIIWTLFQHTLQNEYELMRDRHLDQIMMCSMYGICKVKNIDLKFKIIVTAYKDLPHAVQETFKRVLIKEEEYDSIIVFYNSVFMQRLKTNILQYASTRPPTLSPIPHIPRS

[2] = target: T2, Rb^P H555Y (human, UniProt P06400 380-788, H555Y)
T2 sequence: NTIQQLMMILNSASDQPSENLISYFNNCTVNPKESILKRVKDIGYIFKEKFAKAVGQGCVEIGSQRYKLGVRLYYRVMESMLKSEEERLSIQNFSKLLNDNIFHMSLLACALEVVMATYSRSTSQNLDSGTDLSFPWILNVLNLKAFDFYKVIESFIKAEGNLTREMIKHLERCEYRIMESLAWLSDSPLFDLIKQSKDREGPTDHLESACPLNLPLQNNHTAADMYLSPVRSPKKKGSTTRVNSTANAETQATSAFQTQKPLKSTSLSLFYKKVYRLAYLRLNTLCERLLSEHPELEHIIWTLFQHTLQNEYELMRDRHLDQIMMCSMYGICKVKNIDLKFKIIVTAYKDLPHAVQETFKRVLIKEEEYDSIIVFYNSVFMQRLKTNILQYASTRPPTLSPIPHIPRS

[3] = target: T3, Rb^P R763T (human, UniProt P06400 380-788, R763T)
T3 sequence: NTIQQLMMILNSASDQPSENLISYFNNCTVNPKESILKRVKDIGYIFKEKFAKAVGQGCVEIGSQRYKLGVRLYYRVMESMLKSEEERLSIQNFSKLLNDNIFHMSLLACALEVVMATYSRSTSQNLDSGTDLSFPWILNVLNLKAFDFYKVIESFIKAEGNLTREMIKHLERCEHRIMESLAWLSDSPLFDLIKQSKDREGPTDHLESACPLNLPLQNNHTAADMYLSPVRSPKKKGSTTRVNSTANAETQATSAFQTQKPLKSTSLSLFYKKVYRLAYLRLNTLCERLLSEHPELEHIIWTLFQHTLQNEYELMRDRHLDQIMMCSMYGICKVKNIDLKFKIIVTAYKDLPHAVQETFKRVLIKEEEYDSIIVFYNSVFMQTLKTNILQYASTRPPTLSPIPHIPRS

[4] = target: T4, Rb^P E492Q (human, UniProt P06400 380-788, E492Q)
T4 sequence: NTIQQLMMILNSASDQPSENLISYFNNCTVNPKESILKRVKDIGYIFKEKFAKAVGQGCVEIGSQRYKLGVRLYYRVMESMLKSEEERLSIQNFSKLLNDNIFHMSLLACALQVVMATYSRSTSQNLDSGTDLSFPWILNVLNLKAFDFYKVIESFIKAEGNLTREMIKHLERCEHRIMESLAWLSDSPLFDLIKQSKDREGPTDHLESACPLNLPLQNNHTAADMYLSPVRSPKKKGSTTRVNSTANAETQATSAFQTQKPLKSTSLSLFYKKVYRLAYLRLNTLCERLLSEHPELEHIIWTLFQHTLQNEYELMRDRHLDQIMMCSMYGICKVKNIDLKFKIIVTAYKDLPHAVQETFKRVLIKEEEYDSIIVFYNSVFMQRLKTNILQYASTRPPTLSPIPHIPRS

[5] = target: T5, Rb^P S534R (human, UniProt P06400 380-788, S534R)
T5 sequence: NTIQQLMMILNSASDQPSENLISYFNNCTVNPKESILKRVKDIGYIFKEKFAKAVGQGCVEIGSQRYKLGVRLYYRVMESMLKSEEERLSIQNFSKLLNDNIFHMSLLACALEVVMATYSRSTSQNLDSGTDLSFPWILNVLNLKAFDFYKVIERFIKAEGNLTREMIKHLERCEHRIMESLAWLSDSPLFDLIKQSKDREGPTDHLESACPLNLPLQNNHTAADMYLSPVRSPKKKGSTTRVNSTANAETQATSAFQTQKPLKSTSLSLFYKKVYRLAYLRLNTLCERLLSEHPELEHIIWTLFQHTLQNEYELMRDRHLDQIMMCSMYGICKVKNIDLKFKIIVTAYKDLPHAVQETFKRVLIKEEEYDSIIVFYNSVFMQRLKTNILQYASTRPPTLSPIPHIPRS

Measured: binding result

DLYCYEQLN (not fully specified; TMR fluorescent label (TMR-E7^LxCxE)) [TMR-E7^LxCxE (LxCxE peptide of the E7 oncoprotein from HPV, TMR-labeled)]
binds: all assays above
